Consider 1 substance from PMC7403387.

The test addresses Neural cell adhesion molecule (NCAM1), endogenous in Vero cells (African green monkey (endogenous in Vero)).

“Zika virus (ZIKV) E protein on the surface of purified mature virions, labelled with the maleimide-diazirine-biotin probe (natural protein)” returned a decrease in ZIKV attachment to Vero cells (RT-qPCR) with NCAM1 ECD protein or anti-NCAM1 antibody of 40%.
